The values that follow come from US20230227580A1, “ANTI-VWF ANTIBODIES AND USES THEREOF” (MONASH UNIVERSITY, priority 2020, published 2023).

The target of one experiment is VWF (Homo sapiens, UniProt P04275). In words: VWF binding in the presence or absence of ristocetin (FIG. 7).
A further experiment addresses T1, platelet GPIbα (Homo sapiens, UniProt P07359).
T1 construct: endogenous in cells; host or cells: platelets in citrated whole blood
In words: Platelet adhesion to collagen III under constant shear, whole blood perfusion with OS-1. The settings on record: for Numbers of adherent platelets: 20 µg ml^-1 abciximab; for Platelet adhesion (relative, fluorescence intensity): collagen III, 1,500 s^-1. Format: cell-based. The text has this:
(§1) In-house designed PDMS microfluidic chips (FIG. 1A) contained channels of 52 µm height with a footprint of 300 µm x 46 mm (used in FIG. 1) or 300 µm x 17 mm. Selected channels incorporated a semi-circular stenotic section of various lengths (600 µm, 1000 µm or 2000 µm diameter), creating 80% lumen reduction. Chips were manufactured as previously reported (Westein et al. Proceedings of the National Academy of Sciences of the United States of America. 2013 Jan 22;110(4):1357-62). The produced PDMS chips were sealed with cover slips by hydrophobic interaction and coated with collagen by perfusion of collagen solution followed by static incubation at RT for at least 1 hr. Channels were rinsed with PBS and blocked with 2% BSA. Wall shear rates of the input flow for these microchannels were approximated from volumetric flow rates by using the equation, γ = 6Q/wh2. Herein, γ is the wall shear rate (s^-1), Q the volumetric flow rate (mls^-1), w the channel with (cm) and h the channel height (cm).
(§2) Citrated whole blood was incubated with DiOC6 (0.5 µg ml^-1) (Sigma-Aldrich Co, St. Louis, MO, USA) and drawn through microfluidic channels by a programmable syringe pump (Legato 130, KD Scientific, USA). Time-lapse z-stack images of platelet deposition were captured in multiple track, resonant scanning mode, using a Nikon A1R confocal microscope system. Platelet deposition was recorded over time (2 frames per minute) for up to 20 minutes and quantified in ImageJ using a Z-projection of the acquired signal.
For experiments measuring rolling velocities, anti αllbβ3 antibody (abciximab; 20 µg ml^-1)-treated whole blood containing 0.5 µg ml^-1 DiOC6 was drawn over a collagen type III-coated surface. Where indicated, blood was incubated with 30 µM aspirin (Sigma Aldrich, USA) and 300 µM 2-MeSAMP (Sigma-Aldrich Co, St. Louis, MO, USA) prior to blood perfusion. 10 second video clips of rolling platelets were recorded in the green fluorescent channel using an Olympus IX81 microscope system. Platelet rolling velocities were calculated using Diatrack v3.04 large scale particle tracking software (Vallotton et al. Microsc Microanal. 2013 Apr;19(2):451-60).

Experiment [1] concerns thrombus formation / platelet deposition. In words: Thrombus formation on collagen type I in stenosis channels (SRG versus constant shear). Type of experiment: cell-based, human. Particulars: 15 minutes of blood flow; for Platelet deposition: 0.1 µM OS-1.
Description: as §1, §2

Where no end group is shown, it is not given here.

“Cablivi: commercially available antibody (Cablivi®, Sanofi) binding VWF [reference compound]”: the “Mechanism of VWF binding (dependence on conformation)” value in the experiment with VWF is recorded as “conformation independent”.

Consider “OS-1: cyclic peptide, allosteric inhibitor of GPlbα/VWF interactions with sequence CTERMALHNLC, obtained from Auspep (also: cyclic peptide, ring not described) [reference compound]”, for which the “Numbers of adherent platelets” value with platelet GPIbα (3 µM OS-1, constant shear 2,000 s^-1) was found to be 11±4 platelets per field; with platelet GPIbα (3 µM OS-1, constant shear above 500 s^-1), 53±4 platelets per field. Moreover, the “Platelet adhesion (relative, fluorescence intensity)” value in the experiment with platelet GPIbα (3 µM OS-1) is recorded as “completely abolished”; with platelet GPIbα (increasing concentrations of OS-1), “concentration dependently reduced”. The Platelet deposition result in experiment [1] (constant shear) and in experiment [1] (shear gradient conditions) was “inhibited” each time. Besides, the Thrombus formation entry was “reduced thrombus formation” in experiment [1] (2000 s^-1 constant shear), “inhibited thrombus formation” in experiment [1] (SRGs (187-1,500 s^-1)) and “inhibited thrombus formation” in experiment [1] (SRGs (300-2,000 s^-1)).
